Measured values reported in paper doi:10.1101/2024.06.24.600433, “Role of the antiparallel double-stranded filament form of FtsA in activating the Escherichia coli divisome” (bioRxiv, 2024).
Residue numbers refer to the chain shown, from its start. In names and notes the source's numbering stands.

B1: FtsA^M71A with Q155C (natural protein, E. coli, UniProt P0ABH0 1-420, looked up)
chain: MIKATDRKLVVGLEIGTAKVAALVGEVLPDGMVNIIGVGSCPSRGMDKGGVNDLESVVKCVQRAIDQAELAADCQISSVYLALSGKHISCQNEIGMVPISEEEVTQEDVENVVHTAKSVRVRDEHRVLHVIPQEYAIDYQEGIKNPVGLSGVRMCAKVHLITCHNDMAKNIVKAVERCGLKVDQLIFAGLASSYSVLTEDERELGVCVVDIGGGTMDIAVYTGGALRHTKVIPYAGNVVTSDIAYAFGTPPSDAEAIKVRHGCALGSIVGKDESVEVPSVGGRPPRSLQRQTLAEVIEPRYTELLNLVNEEILQLQEKLRQQGVKHHLAAGIVLTGGAAQIEGLAACAQRVFHTQVRIGAPLNITGLTDYAQEPYYSTAVGLLHYGKESHLNGEAEVEKRVTASVGSWIKRLNSWLRKEF
notes: FtsA of E. coli with M71A and Q155C; M71A introduced into pWM7049 or pWM7239 by site-directed mutagenesis; I take them to be the Q155C and the R286W Q155C derivatives of pDSW210-FLAG-FtsA; source: E. coli, expressed from a plasmid, in cells (crosslinked in vivo)
B2: FLAG-FtsA^Q155C (natural protein, E. coli, UniProt P0ABH0 1-420, looked up)
chain: B1 chain with A71M
notes: FtsA of E. coli with Q155C, made by site-directed mutagenesis on pWM2785 (pDSW210-FLAG-FtsA); probably the whole FtsA reading frame, since it complements an ftsA null allele; also called pDSW210-FLAG-FtsA^Q155C; source: E. coli, expressed from pDSW210 with IPTG, in cells (crosslinked in vivo); not shown: FLAG, N-terminal, kept

Key:
[1] = target: the molecule itself; assay: cross-linking; in vivo cysteine crosslinking of E. coli cells in cold PBS with 0.5 mM BMB or BMH for 10 min, quenched with 40 mM BME; SDS-PAGE and anti-FtsA immunoblot; dividing cells (ftsZ84(ts) 10 and 20 min after return to 30°C; ftsQ1ts, zipA1ts and ftsA^o strains at 30°C, ftsA^o strain also at 42°C; WM4952 at 37°C; WM4953 ftsL*)
[2] = target: the molecule itself; assay: cross-linking; in vivo cysteine crosslinking, ftsQ1(ts) strain WM7148 shifted to the nonpermissive 42°C; anti-FtsA immunoblot
[3] = target: the molecule itself; assay: cross-linking; in vivo cysteine crosslinking, zipA1(ts) strain WM7149 shifted to the nonpermissive 42°C; anti-FtsA immunoblot

| Protein | DS filament crosslinking at Q155C relative to WT FtsA [1] | fold decrease of the crosslinked band at 42°C against 30°C [2] [fold] | fold decrease of the crosslinked band at 42°C against 30°C [3] [fold] |
| --- | --- | --- | --- |
| B1 | ~35 % of WT levels | – | – |
| B2 | – | 3 | 7.5 |
